From patent US20030059827A1 (published 2003)

Molecular target: T1, GFP (non-modified EGFP) (UniProt P42212 1-238 = GFP)
T1 construct: also called GFP alone; original GFP
Assay: affinity chromatography on Ni-NTA-bound PDZ, Western blot with anti-GFP
Source text: To carry out the affinity chromatography assay, bacterially-expressed PDZ domains and EGFP derivatives were produced and fused to the different target peptides. The original and modified PDZ domains were expressed in E. coli XL1-Blue as fusions with 6XHis. The EGFP-peptides fusions were expressed in E. coli BL21 as described in Sambrook et al, 1989, Molecular Cloning: A Laboratory Manual, 2nd Ed., Vol 3. The bacterially expressed PDZ domains were then bound to nickel resin (Ni-NTA agarose, Quiagen) as described by the manufacturer. The resin-bound PDZ domains were then incubated with E.coli extracts made from bacteria expressing each of the target peptide-GFP fusions and washed four times with 50 mM NaH₂PO₄, 300 mM NaCl; 20 mM Imidazole; 0,1% of TritonX-100 to remove any unbound proteins. The bound proteins were eluted using 50 mM NaH₂PO₄, 300 mM NaCl; 200 mM Imidazole and analyzed by Western blot using antibodies against GFP to determine the presence of EGFP fused to the target peptide.

B1: PDZ-3, third PDZ domain of mouse PSD-95 (amino acids 302-402) fused to polyhistidine (6XHis), from plasmid pQEPDZ-3 (other)
chain: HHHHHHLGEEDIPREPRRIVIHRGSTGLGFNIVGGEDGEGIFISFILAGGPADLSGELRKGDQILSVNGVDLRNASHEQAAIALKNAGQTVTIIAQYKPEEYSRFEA
notes: range 302-402; also called original PDZ domain; the original PDZ
- binding result: no binding
